Patent US20230227514A1, “BETA-ARRESTIN COMPOSITIONS AND ASSOCIATED METHODS” (Duke University, priority 2020, published 2023)

Tests used:
[1] = molecular target: T1, D1 dopamine receptor (D1R) (Homo sapiens, UniProt P21728); assay: Confocal trafficking and colocalization with D1R; format: cell-based; settings: HEK-293 cells with stable D1R expression; dopamine 15 minutes
T1 construct: expressed in transfected cells
Experimental: (§1) Immunostaining and confocal microscopy. […] Twenty-four hours post-transfection, cells were serum-starved for 4 h, and either left untreated or treated with respective agonists for the indicated times in the Figure descriptions. After stimulation, cells were fixed with 5% formaldehyde diluted in phosphate-buffered saline (PBS), permeabilized with 0.1% Triton in PBS containing 2% bovine serum albumin for 20 min and incubated at room temperature with appropriate primary antibody. The next day, cells were washed three times with PBS and incubated with Alexa594 conjugated secondary antibody for 1 h, followed by repeated washes using PBS. Confocal images were acquired using Zeiss LSM510 laser-scanning microscope using multitrack sequential with excitation (488 and 568 nm) and emission (BP 505-550 nm and LP 585 nm) filter sets. Images (1024×1024 pixels) were collected using either a 63× or 100× oil immersion lens. Images were processed for Figure presentation using Adobe Photoshop software, and any increase or decrease of brightness/contrast was applied to the entire image. The nuclear rim localization of YFP-βarrestin2-SUMO1 is readily visualized in cells with low to moderate expression of YFP-protein. In cells with high expression, this localization is present, and can be discerned by enlarging sections of the nuclear rim. […]

V2R [2] = molecular target: T2, V2R (Homo sapiens, UniProt P30518); assay: Co-immunoprecipitation of βarrestin2 constructs with HA-V2R; format: binding; settings: HEK-293 cells stably expressing HA-V2R; AVP
T2 construct: HA (N); expressed in transfected cells
Experimental: Twenty-four hours post-transfection, cells were starved in PBS containing 10 mM HEPES (pH 7.4) for 1 h and stimulated with vehicle or agonist (isoproterenol, 1 μM; or AVP 1 μM, or Dopamine 1 μM) at 37° C. for desired times. After stimulations, β2AR stable cells were treated with the crosslinker DSP to a final concentration of 480 nM, and plates were rocked for 20 min at room temperature. Reaction was quenched by adding 25 μl of 1M Tris-Cl pH 8.5 per 1 mL volume of buffer in the dish and rocked for additional 5 min at room temperature.

RanGAP1 = molecular target: T3, RanGAP1 (Homo sapiens, UniProt P46060); assay: Confocal colocalization with endogenous RanGAP1 at the nuclear envelope; format: cell-based; settings: HEK-293 cells with or without β2AR agonist stimulation
T3 construct: endogenous in cells; host or cells: HEK-293T / HEK-293
Experimental: as §1

β2AR = molecular target: T4, β2AR (Homo sapiens, UniProt P07550); assay: Chemical cross-linking and co-immunoprecipitation of βarrestin2 constructs with Flag-β2AR; format: binding; settings: HEK-293 cells stably expressing FLAG-β2AR; 5 minutes of 1 μM isoproterenol; DSP cross-linking, co-IP, Western blot
T4 construct: Flag (N); expressed in transfected cells
Experimental: Cross-linking, Immunoprecipitation and Immunoblotting. […] Twenty-four hours post-transfection, cells were starved in PBS containing 10 mM HEPES (pH 7.4) for 1 h and stimulated with vehicle or agonist (isoproterenol, 1 μM; or AVP 1 μM, or Dopamine 1 μM) at 37° C. for desired times. After stimulations, β2AR stable cells were treated with the crosslinker DSP to a final concentration of […], and plates were rocked for 20 min at room temperature. Reaction was quenched by adding 25 μl of 1M Tris-Cl pH 8.5 per 1 mL volume of buffer in the dish and rocked for additional 5 min at room temperature.
Harvested cells were washed with ice-cold PBS (pH 7.4) and solubilized in an ice-cold lysis buffer (50 mM HEPES (pH 7.5), 2 mM EDTA, 250 mM NaCl, 10% (v/v) glycerol, and 0.5% (v/v) IGEPAL CA-630) that was supplemented with phosphatase and protease inhibitors (1 mM sodium orthovanadate, 1 mM sodium fluoride, 1 mM phenylmethylsulfonyl fluoride, 5 μg/ml leupeptin, 5 μg/ml aprotinin, 1 μg/ml pepstatin A, and 100 μM benzamidine). […] Cell lysate protein concentrations were determined by Bradford protein assay and equivalent μg of proteins were immunoprecipitated using anti-FLAG M2 antibody resin (for FIG. 2) or Anti-HA magnetic beads from Thermo Pierce (for FIG. 5, FIG. 7, and FIG. 8). […] HA-D2R or HA-V2R were detected using an anti-HA IgG (Cell Signaling Technologies). […]

V2R [3] = molecular target: T2, V2R; assay: BRET assay of βarrestin2 construct recruitment to V2R; format: cell-based; settings: vasopressin stimulation, 15 min
Experimental: Changes following agonist treatment are expressed as a percentage of the BRET signal observed in unstimulated cells (top panel). The histogram (bottom panel) represents Bmax values of agonist-induced BRET as means±SEM of 3 independent experiments performed in duplicates. Lack of significance (“ns”) of changes in energy transfer was evaluated using unpaired t-test.
BRET assays. […] Titration assays were first completed, which allowed determination of the specificity of association among different interaction partners. See Nagi and Shenoy. 2019, supra; Gales et al. 2005. Nature methods 2:177-184; Nagi et al. 2015. Cellular and molecular life sciences: CMLS 72:3543-3557; Audet and Pineyro. 2011. Methods in molecular biology 756:149-163; and Rebois et al. 2006. Journal of cell science 119:2807-2818. […] BRET readings were acquired using Synergy Neo2 plate reader and obtained 5 min after manual addition of Rluc substrate, coelenterazine h (Promega) to a final concentration of 5 μM.
The BRET signal generated was determined by calculating the ratio of light emitted by YFP (520-550 nm) over the light emitted by Rluc (440-480 nm). These values were then corrected by subtracting the background signal (detected when the Rluc-tagged construct was expressed without acceptor) from the BRET signal detected in cells co-expressing both donor and acceptor constructs. […]

T3 sequence (P46060 2-587 limits assumed): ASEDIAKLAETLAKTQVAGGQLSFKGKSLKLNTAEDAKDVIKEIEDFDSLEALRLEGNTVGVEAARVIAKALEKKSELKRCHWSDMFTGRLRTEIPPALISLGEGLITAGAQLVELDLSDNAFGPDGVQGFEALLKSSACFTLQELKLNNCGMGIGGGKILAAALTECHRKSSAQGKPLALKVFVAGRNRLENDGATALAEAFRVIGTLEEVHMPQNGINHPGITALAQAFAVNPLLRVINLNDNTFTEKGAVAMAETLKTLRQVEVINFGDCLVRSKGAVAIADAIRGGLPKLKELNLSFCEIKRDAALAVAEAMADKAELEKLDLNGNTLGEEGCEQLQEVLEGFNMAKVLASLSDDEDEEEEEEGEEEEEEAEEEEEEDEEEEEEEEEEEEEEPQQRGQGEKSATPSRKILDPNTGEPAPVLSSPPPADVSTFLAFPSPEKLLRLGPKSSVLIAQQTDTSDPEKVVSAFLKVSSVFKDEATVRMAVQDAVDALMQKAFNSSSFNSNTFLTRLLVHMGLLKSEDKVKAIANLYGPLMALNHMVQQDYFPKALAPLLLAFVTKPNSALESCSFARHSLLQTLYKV
T3 sequence (P63165 2-97 partner limits assumed): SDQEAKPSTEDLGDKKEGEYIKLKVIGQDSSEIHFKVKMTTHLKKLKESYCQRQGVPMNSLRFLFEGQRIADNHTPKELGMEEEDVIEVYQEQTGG
T1 sequence (P21728 whole entry): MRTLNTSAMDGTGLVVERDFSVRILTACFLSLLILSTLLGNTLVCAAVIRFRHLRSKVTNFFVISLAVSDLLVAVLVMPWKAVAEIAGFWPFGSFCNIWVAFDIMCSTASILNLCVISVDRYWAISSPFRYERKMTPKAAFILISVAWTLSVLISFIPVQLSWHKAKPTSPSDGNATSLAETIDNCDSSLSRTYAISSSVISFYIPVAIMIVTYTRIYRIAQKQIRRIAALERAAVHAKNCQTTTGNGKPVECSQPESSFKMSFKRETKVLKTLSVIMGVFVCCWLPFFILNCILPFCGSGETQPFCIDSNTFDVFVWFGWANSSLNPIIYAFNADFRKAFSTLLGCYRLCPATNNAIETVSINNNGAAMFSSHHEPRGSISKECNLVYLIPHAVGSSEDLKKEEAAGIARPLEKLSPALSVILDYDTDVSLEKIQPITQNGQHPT

βarrestin2-SUMO1: rat βarrestin2 polypeptide fused to human SUMO1 (SEQ ID NO:1); used YFP- or Flag-tagged
association with D1R after dopamine activation (confocal) [1]: strongly and stably
binding with agonist activated V2Rs by co-immunoprecipitation (V2R [2]): equivalent binding
colocalization with endogenous RanGAP1 at the nuclear envelope (RanGAP1): dramatic increase in colocalization
binding to activated β2AR relative to WT βarrestin2 (β2AR): 2-3 fold
magnitude of interaction with activated V2R defined by BRET, versus βarrestin2 (V2R [3]): No significant differences
